Data from patent US20250352667A1.

What was measured:
[1] = target: KEAP1 (wild-type full-length), His-tagged (human) (UniProt Q14145); assay: AlphaScreen; 9.6 nM FLAG-NRF2, 150 nM His-KEAP1; against wild-type NRF2 isoform 2 = 100%
[2] = target: KEAP1 (wild-type full-length), His-tagged (human) (UniProt Q14145); assay: AlphaScreen; 38.4 nM FLAG-NRF2, 150 nM His-KEAP1; Repeat 1 (same value as in Table 23)
[3] = target: KEAP1 (wild-type full-length), His-tagged (human) (UniProt Q14145); assay: AlphaScreen; over 9.6, 19.2 and 38.4 nM NRF2; 150 nM His-KEAP1
[4] = target: KEAP1 (wild-type full-length), His-tagged (human) (UniProt Q14145); assay: AlphaScreen; 19.2 nM FLAG-NRF2, 150 nM His-KEAP1 (same value as in Table 23)
[5] = target: KEAP1 (wild-type full-length), His-tagged (human) (UniProt Q14145); assay: AlphaScreen; 9.6 nM FLAG-NRF2, 150 nM His-KEAP1; Repeat 2 (same value as in Table 23)
[6] = target: KEAP1 (wild-type full-length), His-tagged (human) (UniProt Q14145); assay: AlphaScreen, all variants on one plate; average of three conditions ± standard deviation, KEAP1 150 nM; relative to NRF2 (WT) isoform 2
[7] = target: KEAP1 (wild-type full-length), His-tagged (human) (UniProt Q14145); assay: AlphaScreen; 19.2 nM FLAG-NRF2, 150 nM His-KEAP1; Repeat 1 (same value as in Table 23)
[8] = target: KEAP1 (wild-type full-length), His-tagged (human) (UniProt Q14145); assay: AlphaScreen, all variants on one plate; optimal condition (19.2 nM NRF2), KEAP1 150 nM; relative to NRF2 (WT) isoform 2
[9] = target: KEAP1 (wild-type full-length), His-tagged (human) (UniProt Q14145); assay: AlphaScreen, all variants on one plate; average of three conditions, KEAP1 150 nM; the reference itself
[10] = target: KEAP1 (wild-type full-length), His-tagged (human) (UniProt Q14145); assay: AlphaScreen; 38.4 nM FLAG-NRF2, 150 nM His-KEAP1; Repeat 2 (same value as in Table 22)
[11] = target: KEAP1 (wild-type full-length), His-tagged (human) (UniProt Q14145); assay: AlphaScreen, all variants on one plate; optimal condition (19.2 nM NRF2), KEAP1 150 nM; the reference itself
[12] = target: KEAP1 (wild-type full-length), His-tagged (human) (UniProt Q14145); assay: AlphaScreen; 9.6 nM FLAG-NRF2, 150 nM His-KEAP1; Repeat 1 (same value as in Table 22)

Chain of KEAP1 (wild-type full-length), His-tagged (human) (Q14145 2-624 limits assumed, form in doubt): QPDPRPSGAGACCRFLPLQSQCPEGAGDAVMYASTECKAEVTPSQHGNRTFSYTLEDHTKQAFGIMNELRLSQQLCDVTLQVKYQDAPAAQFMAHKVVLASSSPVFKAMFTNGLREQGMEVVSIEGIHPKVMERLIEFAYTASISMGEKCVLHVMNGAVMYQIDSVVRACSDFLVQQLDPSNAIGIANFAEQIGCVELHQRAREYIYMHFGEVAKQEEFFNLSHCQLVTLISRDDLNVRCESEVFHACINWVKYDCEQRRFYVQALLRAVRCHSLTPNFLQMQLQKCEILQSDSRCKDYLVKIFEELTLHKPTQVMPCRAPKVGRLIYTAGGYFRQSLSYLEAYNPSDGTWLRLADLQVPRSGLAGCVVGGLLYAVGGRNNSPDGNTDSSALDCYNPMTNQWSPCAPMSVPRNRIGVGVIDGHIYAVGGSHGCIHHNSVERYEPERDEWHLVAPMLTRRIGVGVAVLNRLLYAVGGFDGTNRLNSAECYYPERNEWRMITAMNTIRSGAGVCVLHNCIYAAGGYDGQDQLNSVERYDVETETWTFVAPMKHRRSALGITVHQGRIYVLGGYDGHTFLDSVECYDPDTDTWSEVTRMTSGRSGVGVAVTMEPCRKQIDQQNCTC

Row | Substance | Binding Percentage (%) [1] [%] | A-counts [2] [A-counts] | Standard Deviation (of binding percentage) [3] [%] | S/N [4] | A-counts [5] [A-counts] | % Disruption in Binding (Reported Values) [6] [%] | A-counts [7] [A-counts] | % Disruption in Binding [8] [%] | % Disruption in Binding (Reported Values) [9] [%] | A-counts [10] [A-counts] | % Disruption in Binding [11] [%] | A-counts [12] [A-counts]
1 | NRF2 isoform 2 (E63G/E66G full-length), FLAG-tagged | 35.7 | 2120 | 10.2 | 1.8 | 1520 | 61.7 | 1700 | 59.7 |  |  |  | 
2 | NRF2 isoform 2 (wild-type full-length), FLAG-tagged |  |  |  |  |  |  |  |  | 0 | 3460 | 0 | 2310
